Literature values as cited in paper PMC6136348, “In the quest for new targets for pathogen eradication: the adenylosuccinate synthetase from the bacterium Helicobacter pylori” (Journal of Enzyme Inhibition and Medicinal Chemistry, 2018).

Molecular target: Adenylosuccinate synthetase (Escherichia coli) (UniProt P0A7D4)

Sequence of Adenylosuccinate synthetase (P0A7D4 2-432): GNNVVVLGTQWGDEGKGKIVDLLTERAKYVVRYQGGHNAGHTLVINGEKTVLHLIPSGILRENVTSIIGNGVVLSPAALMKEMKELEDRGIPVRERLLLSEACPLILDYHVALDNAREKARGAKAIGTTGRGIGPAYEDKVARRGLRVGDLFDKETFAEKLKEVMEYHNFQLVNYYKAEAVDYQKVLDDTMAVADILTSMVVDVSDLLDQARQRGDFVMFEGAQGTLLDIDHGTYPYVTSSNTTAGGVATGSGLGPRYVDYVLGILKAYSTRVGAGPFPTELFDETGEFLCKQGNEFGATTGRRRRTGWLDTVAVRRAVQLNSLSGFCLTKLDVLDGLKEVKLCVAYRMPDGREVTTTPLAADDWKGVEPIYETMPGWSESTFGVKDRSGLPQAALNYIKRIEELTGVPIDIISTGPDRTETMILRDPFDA

Adenylosuccinate synthetase (from UniProt P0A7D4)
Kd: 10 µM
